Patent publication US20030229906A1, “Methods and compositions for the treatment of disorders of HIV infection” (priority 2002, published 2003)

Assays:
[1] = biological target: Src tyrosine kinase (mouse) (UniProt P05480); test: cell-based or functional assay
[2] = system: HIVAN in transgenic mice; settings: by inhibiting cellular Cdk9, an enzyme required for HIV-1 Tat to induce LTR-mediated virus transcription; cited from earlier work

Row | Molecule | specific activity of the Src tyrosine kinase (immune-complex kinase assay with [gamma-32P]-ATP and enolase, podocytes transduced with Nef or vector) [1] [fold] | effect on HIVAN in transgenic mice [2]
1 | HIV-1 Nef | 2.3 | 
2 | CN1CC[C@H](c2c(O)cc(O)c3c(=O)cc(-c4ccccc4Cl)oc23)[C@H](O)C1 [flavopiridol] |  | ameliorates HIVAN
